Measured values published in the PETadex activity labels (doi:10.1093/ismejo/wraf068).

Substrate: PET
Assay: Proxy for plastic degradation [HPLC-UV] (mmol)
Details: pH 8

Protein	Proxy for plastic degradation (30 °C)	Proxy for plastic degradation (60 °C)
unnamed (protein) MMKDIAITFREGTIAARIYLPPPVHRAGEPHPGIIILHGYLAQQIQFDDLPRRLARKGYVAITFDMPGHGRSSGKRGYIEKDLQIDAATTVLDHLISLPNVDPKRILVIGHSLGGAMGTYLCARDPRPTAFVAIAPAGSLKRIVPLPARMLFGIPYIIHRIKKRMTGNSLYFHSIVTEHIVWADKRKVKFELERELLQHRQPVDNYRTIFLIDPRIPARKVTIPTIMFLASRDRVVPNRISRELFDNIASDDKTLLTIENSGHSIMSDWKKEDFWKMLVPWLETHIPP	0	0
unnamed (protein) VGTISFDLVDKERLELYGDKIGEERKFKAQMWYPSDDVTEGERAPWIEDGVKVSRMIPKDIGLPGFLIDYSSLIKSNSYKGVPISEKEEKYPIVIISHGWTGYRNIHTDIGELLASHGYIAISIDHTYGSLATVFDNGEVIEVDYGALPNRNETEDFLDYANALVTTYAYDSRFVLDYLEELDDSELIDGRLDLDRIGTLGHSTGGGGVVKIAIEDDRIKAIFGFDPWVEPIEDELLKIGLDVPSLFIRSEQWEEGYNNGYLTTLINHSVIKPMTYQMNGVNHLDFTMLYMYRPILQAFGFAGELDSQVSSKIQLEYVLKFFETYLKDNETNLNDIEKIYDSVIPVNY	0	0
unnamed (protein) VEPLADPAKPGPYPVGVTTMLLVDHSRTDNALAGGPRSLMTEIWYPATDDTRGLPKNRLLDFFNRNTDPGFTVLLKMAFGIDLIQADKDFRNDAVRDARVRDGRFPLVLFSHGNGGIRMQNAYWCEHMASHGYIVMAPDHTGNCAVTFIDGRIFPFNDSEEGREQSRQDRPKDISFLIDAMERMNKGADSRFMGKVDLDHIGVAGHSFGGFTSTWVADAEPRVDAIVPMAGAGAERVNYTCPVMVLVATEDDTLGPERMADLRRYYDESKGPRYLVEFLNAGHFSFTEMYQLKPDFGDGCGTGTRITNGEPLTYIAMDVAFPLIKGYTTAFFGKYLKGLDGYDAYLAANHNPNELVVKSSIPETPQ	0	0
unnamed (protein) QNSANVQNEISYDVFDYAQHPMGTIWGDPLPDAPALAARGEYMVGVQTLHLSNPNQTDVINTITSKSTVIYDRPLTVEVWYPATLKAGQVQVTVYCDFLGRYDKPGTLVPYTFLGRATRDAVPDTADGPYPLIIISHGYPGSRHLLFYLGENLASKGYVVVSIDHTDSTYKDVGHFASTLVNRSLDQKFVIREILKMPIWKDLCNPNEVGIIGYSMGGYGALRTLGAGLEDSNTIKGFLGEFASMLIAKPSDEGDPLVKAAVLFAPWGGSFGTGPTGLWDKASLAKITVPTLWIAGSQDDIAGYEGIVNLFNSSVNSRRYLLTYDNALHNVAPHPAPSIATEFGDYYRFADPVWDMWRIDSINEHFVTAFFDLYLKGDESAGSYLDMKVENSNEGVYSDQAESSTYWPGFQPRTALGLKFR	0	0
unnamed (protein) MEKPVVFENEGQQIVGMLHAPDGAEGLSPAVVMFHGFTGTKVEPHRLFVKTARRLAEEGFYVLRFDFRGSGDSEGEFREMTLEGEISDAKASLDFILSQPGVDRGRIGVIGLSMGGGVAACLAGRDERVRAVALWAAVSEDPPDLFQELIKTFEERPDKSVDYVDMGGNLVGKGFFEDLRNVKPLQEISGFEGPVLIVHGDNDQTVSVEHAYRFYERLKGKHPLTALHIIRGADHTFNSHEWEREVIEVTVDFMKRA	0	0
unnamed (protein) MSQYDPFLRGPFPAGVKTYEFEDTSRDRKLPIECWYPATSAYKGKDLDKETQDQFQLMEGFPKARQNAVRDAEIVDDSFPLIIFSHGFAGHRRQTTHFCTHLAGHGYIVASIDHIGSTLPEIMQMVMKVRKEGKLPDIEKFMEDVANDRPVDATFTIDTILAGELGPGIDPDRIGITGHSFGGWTTLVTTKSDTRIKAALPLAPGGGKSPLYGKDNPLTKMLTLDWERTVPTLYLTAEFDTLLPLDGMKDMFDRTPEPKGMVVLLNADHFHFCDGVEVVHDFFRQMGGFVGGMDPGGESEPAPMKKAKPSSELCPGKDAYTFIQGIGLAHMDAHLKGNSDAIELLKGDIAALLADRGVKVEVMQG	0	0
unnamed (protein) CNDGSGGLEKTTELEPEDIYPLGDYYDPGKTGPYEVGVKTILLADNSRRTMLGHTKRILLTEVWYPILAPGDKINTVGDMIGQLPEWTPQILESFYGENWEDLLNIQTSAWRDAKTFLPDHPFPVIFFSHGLTALRFQNYTLCEHLASHGFLVIAPDHFDNNVFSNIPGHFTWFNPISTVASEFQRPRDIAFLVKHLQTRQSQTATFFGSYADPGRLGITGHSYGGMTSYAAGEQVAEIDAIAPLNPVILVPTTKFFTKPLLLLVGENDNLASSMFNSCEVAKRNYQTHKGNKAFLFLKNSGHYSATDACMLLPPGFINDDITGCGGAMLNPDIANEIVAAYQVAFFSITLKQDARYQDYLNKNNYPDNLDYEVSWK	0	0
unnamed (protein) VEIHDLHFYNRYNHTVAATIYLPENLNNSPAVIFCGGWLSSREMYSWLPEELAKRGYVVLAIDPSGNGDSYGKLPSFKIFGVRIFSVIDGPYNYINGVWSSDIYDAVTFLTTNYRVSKNVALIGHSMGGFAVTDEALKDGRIKTVIALSDADIYAIKNLKIPVMVITGDFDLIINDNLVAIPGYNAANPPKELIVIKFGTHNGFTNLIWPMPPWNHNVTLYYLSSWLDCFLREDRESCKTLEKPHKYLSTLSESKCNLDGKEKVIKRATGRRKTFTAFLLIFLFLAVLILYLRSKEG	0	0
